Assay results reported in US20060257938A1, “Method of screening for drugs that block ligand binding to a lipid binding protein” (priority 2005, published 2006).
Values joined by “and” are separate entries in the source; they are usually repeats but may differ in a detail not shown here. Equal values may be shown once.

Experiments:
Assay type in all cases: binding
Settings in all cases: response relative to ADIFAB2
[1] = Probe fluorescence ratio response to arachidonic acid relative to ADIFAB2
Method in brief: (§1)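 Each fatty acid's response was expressed relative to ADIFAB2, the rI-FABP-L72A probe, as ΔR/ΔRreference. ΔR is the change in the background-corrected two-wavelength intensity ratio R=Fλ1/Fλ2 from its analyte-free baseline R0. Emission was read near about 420-480 nm for unbound and about 495-580 nm for FFA-bound probe.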

[2] = Probe fluorescence ratio response to linolenic acid relative to ADIFAB2
Method in brief: as §1

[3] = Probe fluorescence ratio response to linoleic acid relative to ADIFAB2
Method in brief: as §1

[4] = Probe fluorescence ratio response to oleic acid relative to ADIFAB2
Method in brief: as §1

[5] = Probe fluorescence ratio response to palmitic acid relative to ADIFAB2
Method in brief: as §1

B1: 38T3, 72A (protein, listed as Rattus norvegicus)
chain: AFDGTWKVDRNENYEKFMEKMGINVVKRKLGAHDNLKTTITQEGNKFTVKESSNFRNIDVVFELGVDFAYSAADGTELTGTWTMEGNKLVGKFKRVDNGKELIAVREISGNELIQTYTYEGVEAKRIFKKE
modifications: PEPTIDE (1)...(131) wild-type rat intestinal fatty acid binding protein
For B1, the “DR/DR AA” value ([1]; Arachidonic acid) was 1.60, the “DR/DR LNA” value [2] was 1.64 and the “DR/DR LA” value [3] was 1.58. For the same molecule, the “DR/DR OA” value [4] was 1.55 and the “DR/DR PA” value [5] was 1.02.

B2: 38Y1, 72A (protein, listed as Rattus norvegicus)
chain: AFDGTWKVDRNENYEKFMEKMGINVVKRKLGAHDNLKYTITQEGNKFTVKESSNFRNIDVVFELGVDFAYSAADGTELTGTWTMEGNKLVGKFKRVDNGKELIAVREISGNELIQTYTYEGVEAKRIFKKE
modifications: PEPTIDE (1)...(131) wild-type rat intestinal fatty acid binding protein
For B2, the “DR/DR AA” value ([1]; Arachidonic acid) was 2.08, the “DR/DR LNA” value [2] was 1.88 and the “DR/DR LA” value [3] was 1.82. For the same molecule, the “DR/DR OA” value [4] was 1.72 and the “DR/DR PA” value [5] was 1.52.

B3: 47L2, L72A (protein, listed as Rattus norvegicus)
chain: AFDGTWKVDRNENYEKFMEKMGINVVKRKLGAHDNLKLTITQEGNKLTVKESSNFRNIDVVFELGVDFAYSAADGTELTGTWTMEGNKLVGKFKRVDNGKELIAVREISGNELIQTYTYEGVEAKRIFKKE
modifications: PEPTIDE (1)...(131) wild-type rat intestinal fatty acid binding protein
In the case of B3, the “DR/DR AA” value ([1]; Arachidonic acid) is reported as 1.15, the “DR/DR LNA” value [2] is reported as 1.20 and the “DR/DR LA” value [3] is reported as 1.21. For the same molecule, the “DR/DR OA” value [4] was 1.20 and the “DR/DR PA” value [5] was 0.90.

B4: 47H1, L72A (protein, listed as Rattus norvegicus)
chain: AFDGTWKVDRNENYEKFMEKMGINVVKRKLGAHDNLKLTITQEGNKHTVKESSNFRNIDVVFELGVDFAYSAADGTELTGTWTMEGNKLVGKFKRVDNGKELIAVREISGNELIQTYTYEGVEAKRIFKKE
modifications: PEPTIDE (1)...(131) wild-type rat intestinal fatty acid binding protein
In the case of B4, the “DR/DR AA” value ([1]; Arachidonic acid) is reported as 0.63, the “DR/DR LNA” value [2] is reported as 0.70 and the “DR/DR LA” value [3] is reported as 0.74. For the same molecule, the “DR/DR OA” value [4] was 0.67 and the “DR/DR PA” value [5] was 0.43.

B5: 102Q, 72A (protein, listed as Rattus norvegicus)
chain: AFDGTWKVDRNENYEKFMEKMGINVVKRKLGAHDNLKLTITQEGNKFTVKESSNFRNIDVVFELGVDFAYSAADGTELTGTWTMEGNKLVGKFKRVDNGKEQIAVREISGNELIQTYTYEGVEAKRIFKKE
modifications: PEPTIDE (1)...(131) wild-type rat intestinal fatty acid binding protein
With B5 the “DR/DR AA” value ([1]; arachidonic acid) was 0.62, the “DR/DR LNA” value [2] was 0.71 and the “DR/DR LA” value [3] was 0.66. For the same molecule, the “DR/DR OA” value [4] was 0.60 and the “DR/DR PA” value [5] was 0.30.

B6: 102R, 72A (protein, listed as Rattus norvegicus)
chain: AFDGTWKVDRNENYEKFMEKMGINVVKRKLGAHDNLKLTITQEGNKFTVKESSNFRNIDVVFELGVDFAYSAADGTELTGTWTMEGNKLVGKFKRVDNGKERIAVREISGNELIQTYTYEGVEAKRIFKKE
modifications: PEPTIDE (1)...(131) wild-type rat intestinal fatty acid binding protein
For B6, the “DR/DR AA” value ([1]; arachidonic acid) was 0.51, the “DR/DR LNA” value [2] was 0.57 and the “DR/DR LA” value [3] was 0.60. For the same molecule, the “DR/DR OA” value [4] was 0.56 and the “DR/DR PA” value [5] was 0.25.

B7: 47P1, L72A (protein, listed as Rattus norvegicus)
chain: AFDGTWKVDRNENYEKFMEKMGINVVKRKLGAHDNLKLTITQEGNKPTVKESSNFRNIDVVFELGVDFAYSAADGTELTGTWTMEGNKLVGKFKRVDNGKELIAVREISGNELIQTYTYEGVEAKRIFKKE
modifications: PEPTIDE (1)...(131) wild-type rat intestinal fatty acid binding protein
For B7, the “DR/DR AA” value ([1]; Arachidonic acid) was 0.54, the “DR/DR LNA” value [2] was 0.61 and the “DR/DR LA” value [3] was 0.59. For the same molecule, the “DR/DR OA” value [4] was 0.57 and the “DR/DR PA” value [5] was 0.26.

B8: 47I2, L72A (protein, listed as Rattus norvegicus)
chain: AFDGTWKVDRNENYEKFMEKMGINVVKRKLGAHDNLKLTITQEGNKITVKESSNFRNIDVVFELGVDFAYSAADGTELTGTWTMEGNKLVGKFKRVDNGKELIAVREISGNELIQTYTYEGVEAKRIFKKE
modifications: PEPTIDE (1)...(131) wild-type rat intestinal fatty acid binding protein
For B8, the “DR/DR AA” value ([1]; Arachidonic acid) was 1.19, the “DR/DR LNA” value [2] was 1.19 and the “DR/DR LA” value [3] was 1.22. For the same molecule, the “DR/DR OA” value [4] was 1.15 and the “DR/DR PA” value [5] was 0.92.

B9: 38V2, 72A (protein, listed as Rattus norvegicus)
chain: AFDGTWKVDRNENYEKFMEKMGINVVKRKLGAHDNLKVTITQEGNKFTVKESSNFRNIDVVFELGVDFAYSAADGTELTGTWTMEGNKLVGKFKRVDNGKELIAVREISGNELIQTYTYEGVEAKRIFKKE
modifications: PEPTIDE (1)...(131) wild-type rat intestinal fatty acid binding protein
With B9 the “DR/DR AA” value ([1]; Arachidonic acid) was 1.65, the “DR/DR LNA” value [2] was 1.67 and the “DR/DR LA” value [3] was 1.70. The “DR/DR OA” value [4] was 1.75 and the “DR/DR PA” value [5] was 1.50.

B10: 47E3, L72A (protein, listed as Rattus norvegicus)
chain: AFDGTWKVDRNENYEKFMEKMGINVVKRKLGAHDNLKLTITQEGNKETVKESSNFRNIDVVFELGVDFAYSAADGTELTGTWTMEGNKLVGKFKRVDNGKELIAVREISGNELIQTYTYEGVEAKRIFKKE
modifications: PEPTIDE (1)...(131) wild-type rat intestinal fatty acid binding protein
With B10 the “DR/DR AA” value ([1]; Arachidonic acid) was 1.25, the “DR/DR LNA” value [2] was 1.26 and the “DR/DR LA” value [3] was 1.23. For the same molecule, the “DR/DR OA” value [4] was 1.25 and the “DR/DR PA” value [5] was 1.06.

B11: 38W1, 72A (protein, listed as Rattus norvegicus)
chain: AFDGTWKVDRNENYEKFMEKMGINVVKRKLGAHDNLKWTITQEGNKFTVKESSNFRNIDVVFELGVDFAYSAADGTELTGTWTMEGNKLVGKFKRVDNGKELIAVREISGNELIQTYTYEGVEAKRIFKKE
modifications: PEPTIDE (1)...(131) wild-type rat intestinal fatty acid binding protein
For B11, the “DR/DR AA” value ([1]; Arachidonic acid) was 1.35, the “DR/DR LNA” value [2] was 1.34 and the “DR/DR LA” value [3] was 2.41. The “DR/DR OA” value [4] was 1.58 and the “DR/DR PA” value [5] was 1.55.

B12: 40F2, L72A (protein, listed as Rattus norvegicus)
chain: AFDGTWKVDRNENYEKFMEKMGINVVKRKLGAHDNLKLTFTQEGNKFTVKESSNFRNIDVVFELGVDFAYSAADGTELTGTWTMEGNKLVGKFKRVDNGKELIAVREISGNELIQTYTYEGVEAKRIFKKE
modifications: PEPTIDE (1)...(131) wild-type rat intestinal fatty acid binding protein
In the case of B12, the “DR/DR AA” value ([1]; Arachidonic acid) is reported as 0.89, the “DR/DR LNA” value [2] is reported as 0.99 and the “DR/DR LA” value [3] is reported as 0.90. For the same molecule, the “DR/DR OA” value [4] was 0.90 and the “DR/DR PA” value [5] was 0.80.

B13: 47M, 72A (protein, listed as Rattus norvegicus)
chain: AFDGTWKVDRNENYEKFMEKMGINVVKRKLGAHDNLKLTITQEGNKMTVKESSNFRNIDVVFELGVDFAYSAADGTELTGTWTMEGNKLVGKFKRVDNGKELIAVREISGNELIQTYTYEGVEAKRIFKKE
modifications: PEPTIDE (1)...(131) wild-type rat intestinal fatty acid binding protein
For B13, the “DR/DR AA” value ([1]; Arachidonic acid) was 1.14, the “DR/DR AA” value ([1]; arachidonic acid) was 1.138 and the “DR/DR LNA” value [2] was 1.13 and 1.135. The “DR/DR LA” value [3] was 1.18 and 1.183, the “DR/DR OA” value [4] was 1.17 and 1.168 and the “DR/DR PA” value [5] was 0.97 and 0.966.

B14: 47C3, L72A (protein, listed as Rattus norvegicus)
chain: AFDGTWKVDRNENYEKFMEKMGINVVKRKLGAHDNLKLTITQEGNKCTVKESSNFRNIDVVFELGVDFAYSAADGTELTGTWTMEGNKLVGKFKRVDNGKELIAVREISGNELIQTYTYEGVEAKRIFKKE
modifications: PEPTIDE (1)...(131) wild-type rat intestinal fatty acid binding protein
With B14 the “DR/DR AA” value ([1]; Arachidonic acid) was 0.32, the “DR/DR LNA” value [2] was 0.35 and the “DR/DR LA” value [3] was 0.37. The “DR/DR OA” value [4] was 0.35 and the “DR/DR PA” value [5] was 0.23.

B15: 40V1, L72A (protein, listed as Rattus norvegicus)
chain: AFDGTWKVDRNENYEKFMEKMGINVVKRKLGAHDNLKLTVTQEGNKFTVKESSNFRNIDVVFELGVDFAYSAADGTELTGTWTMEGNKLVGKFKRVDNGKELIAVREISGNELIQTYTYEGVEAKRIFKKE
modifications: PEPTIDE (1)...(131) wild-type rat intestinal fatty acid binding protein
With B15 the “DR/DR AA” value ([1]; Arachidonic acid) was 1.20, the “DR/DR LNA” value [2] was 1.28 and the “DR/DR LA” value [3] was 1.24. The “DR/DR OA” value [4] was 1.21 and the “DR/DR PA” value [5] was 0.91.

B16: 40Y3, L72A (protein, listed as Rattus norvegicus)
chain: AFDGTWKVDRNENYEKFMEKMGINVVKRKLGAHDNLKLTYTQEGNKFTVKESSNFRNIDVVFELGVDFAYSAADGTELTGTWTMEGNKLVGKFKRVDNGKELIAVREISGNELIQTYTYEGVEAKRIFKKE
modifications: PEPTIDE (1)...(131) wild-type rat intestinal fatty acid binding protein
For B16, the “DR/DR AA” value ([1]; Arachidonic acid) was 0.89, the “DR/DR LNA” value [2] was 0.49 and the “DR/DR LA” value [3] was 0.50. For the same molecule, the “DR/DR OA” value [4] was 0.48 and the “DR/DR PA” value [5] was 0.29.

B17: 47A1, L72A (protein, listed as Rattus norvegicus)
chain: AFDGTWKVDRNENYEKFMEKMGINVVKRKLGAHDNLKLTITQEGNKATVKESSNFRNIDVVFELGVDFAYSAADGTELTGTWTMEGNKLVGKFKRVDNGKELIAVREISGNELIQTYTYEGVEAKRIFKKE
modifications: PEPTIDE (1)...(131) wild-type rat intestinal fatty acid binding protein
With B17 the “DR/DR AA” value ([1]; Arachidonic acid) was 0.54, the “DR/DR LNA” value [2] was 0.57 and the “DR/DR LA” value [3] was 0.58. For the same molecule, the “DR/DR OA” value [4] was 0.59 and the “DR/DR PA” value [5] was 0.30.
